{"source": "paper doi:10.1101/2020.10.19.344200", "target": "S. scrofa RNA polymerase II (transcribing, phosphorylated, on a DNA-RNA scaffold) (S. scrofa)", "assay": "cryo-EM structure"}
{"substance": "human U1 small nuclear ribonucleoprotein particle (from UniProt P08621;P09012;P09234) (complex)", "values": [{"measurement": "percent of Pol II particles with density for U1 snRNP", "value": 17.5, "unit": "%"}]}
